Patent publication US20090081211A1 (Genentech, published 2009)

Target: T1, human complement C3 (human, UniProt P01024 23-1663)
T1 construct: also called native C3; pro-molecule C3
Assay: ELISA on purified C3b or C3 (FIG. 8)
Experimental: In another experiment, purified C3b or C3 were captured in microtiter plates using a polyclonal C3 antibody. Binding of S77 (A) or a polyclonal anti C3 antibody (B) to captured C3b or C3 was determined using a secondary HRPO-conjugated antibody. Color was developed with TMB (KPL), stopped in 2N H₂SO₄ and absorbance read at 450 nm.
C3b ELISA for testing specificity of anti C3b antibody S77. Twenty-five μL of capture antibody (YW144.2.45.S77 Affinity Matured xC3/C3b (Genentech) 2 μg/ml) diluted in PBS was added to wells of a microtitre plate and incubated overnight at 4° C. The plate was washed 3× with wash buffer (PBS/0.05% Tween 20 (20× stock; Media Prep; Cat. A3355)). Fifty μL of block buffer was added to the wells and the plate incubated for 1-3 hours with gentle agitation (room temperature) and washed 3× with wash buffer. […] OD reading of plate was taken (450/630 nm). […]

T1 sequence (P01024 other isoform, or with tags, fused parts or gaps limits assumed): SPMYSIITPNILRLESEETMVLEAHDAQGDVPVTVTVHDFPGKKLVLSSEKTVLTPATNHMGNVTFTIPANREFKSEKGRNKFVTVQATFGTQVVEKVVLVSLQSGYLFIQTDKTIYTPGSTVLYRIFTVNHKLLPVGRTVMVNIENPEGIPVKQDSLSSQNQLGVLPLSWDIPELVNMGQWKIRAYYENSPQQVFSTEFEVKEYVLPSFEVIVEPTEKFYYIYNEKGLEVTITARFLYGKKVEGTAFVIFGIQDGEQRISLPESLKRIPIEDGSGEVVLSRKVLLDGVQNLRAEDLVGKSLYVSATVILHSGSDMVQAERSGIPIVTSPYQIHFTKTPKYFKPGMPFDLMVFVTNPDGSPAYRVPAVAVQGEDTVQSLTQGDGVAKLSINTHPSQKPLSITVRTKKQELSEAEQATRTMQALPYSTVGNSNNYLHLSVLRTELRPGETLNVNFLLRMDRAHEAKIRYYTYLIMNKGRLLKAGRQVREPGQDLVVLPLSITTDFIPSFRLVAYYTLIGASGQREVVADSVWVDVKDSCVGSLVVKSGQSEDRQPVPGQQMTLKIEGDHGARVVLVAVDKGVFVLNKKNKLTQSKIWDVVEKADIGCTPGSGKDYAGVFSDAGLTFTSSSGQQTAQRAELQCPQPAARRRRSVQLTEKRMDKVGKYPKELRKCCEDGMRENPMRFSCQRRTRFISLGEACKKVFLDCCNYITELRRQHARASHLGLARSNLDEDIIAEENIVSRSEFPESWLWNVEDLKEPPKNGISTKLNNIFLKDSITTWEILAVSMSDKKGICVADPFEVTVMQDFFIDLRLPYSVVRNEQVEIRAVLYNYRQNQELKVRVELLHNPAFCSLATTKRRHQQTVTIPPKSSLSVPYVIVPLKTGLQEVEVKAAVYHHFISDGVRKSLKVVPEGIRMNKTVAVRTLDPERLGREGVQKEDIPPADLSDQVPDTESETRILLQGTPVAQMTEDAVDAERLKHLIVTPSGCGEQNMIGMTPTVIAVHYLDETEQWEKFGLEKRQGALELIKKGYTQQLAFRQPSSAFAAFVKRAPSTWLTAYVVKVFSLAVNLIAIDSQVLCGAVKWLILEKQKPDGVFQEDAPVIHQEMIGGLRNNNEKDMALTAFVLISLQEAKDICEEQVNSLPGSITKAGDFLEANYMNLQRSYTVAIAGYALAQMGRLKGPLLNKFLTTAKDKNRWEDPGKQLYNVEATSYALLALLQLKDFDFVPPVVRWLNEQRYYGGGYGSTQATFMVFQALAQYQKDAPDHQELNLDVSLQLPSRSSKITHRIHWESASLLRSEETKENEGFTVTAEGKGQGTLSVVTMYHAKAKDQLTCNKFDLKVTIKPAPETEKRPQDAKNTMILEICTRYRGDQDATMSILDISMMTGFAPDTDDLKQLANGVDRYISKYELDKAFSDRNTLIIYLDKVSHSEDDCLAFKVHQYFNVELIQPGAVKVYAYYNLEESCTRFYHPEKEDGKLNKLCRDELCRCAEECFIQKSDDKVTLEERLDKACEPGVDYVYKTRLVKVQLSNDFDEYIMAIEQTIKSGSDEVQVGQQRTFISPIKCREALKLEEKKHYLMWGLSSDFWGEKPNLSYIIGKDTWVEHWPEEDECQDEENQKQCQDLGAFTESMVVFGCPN

- binding result: no binding
B1: antibody S77 (YW144.2.43.S77), format in the assay not stated (antibody, V domains shown)
VH: EVQLVESGGGLVQPGGSLRLSCAASGFSFTSSSVSWVRQAPGKGLEWVGLIYPYNGFNYYADSVKGRFTISADTSKNTAYLQMNSLRAEDTAVYYCARNALYGSGGYYAMDYWGQGTLVTVSS
VL: DIQMTQSPSSLSASVGDRVTITCRASQDVSTAVAWYQQKPGKAPKLLIYSASFLYSGVPSRFSGSGSGTDFTLTISSLQPEDFATYYCQQSYATLPTFEQGTKVEIK
notes: also called anti C3b antibody S77
